# In patent publication US20160108123A1 (Novartis, published 2016):
# Residue numbers refer to the chain shown, from its start. Numbers in names are those of the source.
# B1: BAP058-hum01 (antibody, human IgG4 S228P, kappa, V domains shown)
# VH: QVQLVQSGAEVKKPGASVKVSCKASGYTFTSYWMYWVRQATGQGLEWMGRIDPNSGSTKYNEKFKNRFTISRDDSKNTAYLQMNSLKTEDTAVYYCARDYRKGLYAMDYWGQGTTVTVSS
# VL: DIVMTQTPLSLPVTPGEPASISCKASQDVGTAVAWYLQKPGQSPQLLIYWASTRHTGIPARFSGSGSGTEFTLTISSLQSEDFAVYYCQQYNSYPLTFGQGTKVEIKR
# notes: Humanized IgG4(S228P)/human kappa mAb expressed in CHO cells
# B2: BAP058-hum09 (antibody, human IgG4 S228P, kappa, V domains shown)
# VH: EVQLVQSGAEVKKPGESLRISCKGSGYTFTSYWMYWIRQPPGKGLEWIGRIDPNSGSTKYNEKFKNRVTITADKSTSTAYMELSSLRSEDTAVYYCARDYRKGLYAMDYWGQGTTVTVSS
# VL: B1 VL
# notes: as for B1
# B3: BAP058-hum02 (antibody, human IgG4 S228P, kappa, V domains shown)
# VH: B1 VH
# VL: DIQMTQSPSSLSASVGDRVTITCKASQDVGTAVAWYLQKPGQSPQLLIYWASTRHTGVPSRFSGSGSGTDFTLTISSLQPEDFATYYCQQYNSYPLTFGQGTKVEIKR
# notes: as for B1
# B4: BAP058-hum07 (antibody, human IgG4 S228P, kappa, V domains shown)
# VH: B1 VH with V37I, A40S, T41P, G42S, Q43R, M48L
# VL: EIVLTQSPATLSLSPGERATLSCKASQDVGTAVAWYLQKPGQSPQLLIYWASTRHTGIPPRFSGSGYGTDFTLTINNIESEDAAYYFCQQYNSYPLTFGQGTKVEIKR
# notes: as for B1
# B5: BAP058-hum14 (antibody, human IgG4 S228P, kappa, V domains shown)
# VH: B1 VH
# VL: EIVLTQSPDFQSVTPKEKVTITCKASQDVGTAVAWYQQKPGQAPRLLIYWASTRHTGVPSRFSGSGSGTEFTLTISSLQPDDFATYYCQQYNSYPLTFGQGTKVEIKR
# notes: as for B1
# B6: BAP058-hum16 (antibody, human IgG4 S228P, kappa, V domains shown)
# VH: B1 VH with V37I, A40S, T41P, G42S, Q43R, M48L
# VL: B5 VL
# notes: as for B1
# B7: BAP058-hum12 (antibody, human IgG4 S228P, kappa, V domains shown)
# VH: EVQLVQSGAEVKKPGESLRISCKGSGYTFTSYWMYWVRQAPGQGLEWMGRIDPNSGSTKYNEKFKNRVTISVDTSKNQFSLKLSSVTAADTAVYYCARDYRKGLYAMDYWGQGTTVTVSS
# VL: B3 VL with L37Q, S43A, Q45R, L73F, F83I
# notes: as for B1
# B8: BAP058-hum17 (antibody, human IgG4 S228P, kappa)
# heavy: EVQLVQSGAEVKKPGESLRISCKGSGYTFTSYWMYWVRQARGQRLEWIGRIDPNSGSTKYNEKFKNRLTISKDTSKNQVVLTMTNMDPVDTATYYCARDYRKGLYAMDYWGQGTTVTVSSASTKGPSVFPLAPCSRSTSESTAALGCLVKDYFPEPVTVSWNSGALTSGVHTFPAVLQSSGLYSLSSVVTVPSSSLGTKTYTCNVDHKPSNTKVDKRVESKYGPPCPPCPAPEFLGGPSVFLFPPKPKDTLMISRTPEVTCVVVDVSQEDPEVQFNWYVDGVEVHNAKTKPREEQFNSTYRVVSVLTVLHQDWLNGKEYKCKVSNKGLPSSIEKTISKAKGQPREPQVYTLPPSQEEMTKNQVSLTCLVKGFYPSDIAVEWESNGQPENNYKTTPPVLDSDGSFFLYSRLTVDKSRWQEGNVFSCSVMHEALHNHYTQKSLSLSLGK
# light: EIVLTQSPDFQSVTPKEKVTITCKASQDVGTAVAWYQQKPGQAPRLLIYWASTRHTGVPSRFSGSGSGTEFTLTISSLQPDDFATYYCQQYNSYPLTFGQGTKVEIKRTVAAPSVFIFPPSDEQLKSGTASVVCLLNNFYPREAKVQWKVDNALQSGNSQESVTEQDSKDSTYSLSSTLTLSKADYEKHKVYACEVTHQGLSSPVTKSFNRGEC
# notes: as for B1
# B9: BAP058-hum08 (antibody, human IgG4 S228P, kappa)
# heavy: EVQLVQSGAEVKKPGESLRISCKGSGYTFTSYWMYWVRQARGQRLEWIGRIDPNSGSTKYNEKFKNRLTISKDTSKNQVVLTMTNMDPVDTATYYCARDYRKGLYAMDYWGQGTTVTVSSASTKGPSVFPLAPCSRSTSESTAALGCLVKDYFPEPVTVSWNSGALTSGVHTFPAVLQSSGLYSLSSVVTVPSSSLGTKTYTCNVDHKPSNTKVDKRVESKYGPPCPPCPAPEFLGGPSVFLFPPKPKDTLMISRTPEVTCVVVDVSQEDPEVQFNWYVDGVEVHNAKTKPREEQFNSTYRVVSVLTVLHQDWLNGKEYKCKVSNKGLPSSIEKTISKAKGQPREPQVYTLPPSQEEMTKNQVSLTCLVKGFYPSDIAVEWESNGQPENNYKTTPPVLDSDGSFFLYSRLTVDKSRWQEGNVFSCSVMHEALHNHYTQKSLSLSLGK
# light: DVVMTQSPLSLPVTLGQPASISCKASQDVGTAVAWYQQKPGQAPRLLIYWASTRHTGVPSRFSGSGSGTEFTLTISSLQPDDFATYYCQQYNSYPLTFGQGTKVEIKRTVAAPSVFIFPPSDEQLKSGTASVVCLLNNFYPREAKVQWKVDNALQSGNSQESVTEQDSKDSTYSLSSTLTLSKADYEKHKVYACEVTHQGLSSPVTKSFNRGEC
# notes: as for B1
# B10: BAP058-hum03 (antibody, human IgG4 S228P, kappa, V domains shown)
# VH: B2 VH with E16A, S17T, L18V, R19K, G24V, I37V, P40A, P41T, K43Q, I48M
# VL: EIVLTQSPDFQSVTPKEKVTITCKASQDVGTAVAWYLQKPGQSPQLLIYWASTRHTGVPDRFSGSGSGTDFTLKISRVEAEDVGVYYCQQYNSYPLTFGQGTKVEIKR
# notes: as for B1
# B11: BAP058-hum05 (antibody, human IgG4 S228P, kappa, V domains shown)
# VH: EVQLVQSGAEVKKPGATVKISCKVSGYTFTSYWMYWIRQSPSRGLEWLGRIDPNSGSTKYNEKFKNRLTISKDTSKNQVVLTMTNMDPVDTATYYCARDYRKGLYAMDYWGQGTTVTVSS
# VL: B5 VL with Q37L, A43S, R45Q, E70D, L73F, D81E, F83I
# notes: as for B1
# B12: BAP058-hum06 (antibody, human IgG4 S228P, kappa, V domains shown)
# VH: B2 VH
# VL: B5 VL with Q37L, A43S, R45Q, E70D, L73F, D81E, F83I
# notes: as for B1
# B13: BAP058-hum15 (antibody, human IgG4 S228P, kappa, V domains shown)
# VH: B2 VH
# VL: B5 VL
# notes: as for B1
# B14: chimeric mAb BAP058-chi (antibody, V domains shown)
# VH: EVQLQQSGAELVKPGASVKLSCKASGYTFTSYWMYWVKQGPGRGLEWIGRIDPNSGSTKYNEKFKNKATLTVDKSSSTAYMQLSSLTSEDSAVYYCARDYRKGLYAMDYWGQGTTVTVSS
# VL: DIMMTQSHKFMSTSVGDRVSITCKASQDVGTAVAWYQQKPGQSPKLLIYWASTRHTGVPDRFTGSGSGTDFTLTISNVQSEDLADYFCQQYNSYPLTFGQGTKVEIK
# notes: also called chimeric antibody; the chimera
# B15: BAP058-hum10 (antibody, human IgG4 S228P, kappa, V domains shown)
# VH: QITLKESGPTLVKPTQTLTLTCTFSGYTFTSYWMYWVRQAPGKGLEWVSRIDPNSGSTKYNEKFKNRVTITADKSTSTAYMELSSLRSEDTAVYYCARDYRKGLYAMDYWGQGTTVTVSS
# VL: DVVMTQSPLSLPVTLGQPASISCKASQDVGTAVAWYQQKPGQAPRLLIYWASTRHTGVPSRFSGSGSGTEFTLTISSLQPDDFATYYCQQYNSYPLTFGQGTKVEIKR
# notes: as for B1
# Molecular target: T1, human PD-L1 expressed on 300.19 cells (human, UniProt Q9NZQ7 19-290)
# T1 construct: whole, on cells; also called huPD-L1; PD-L1-expressing 300.19 cells
# T1 sequence (Q9NZQ7 19-290): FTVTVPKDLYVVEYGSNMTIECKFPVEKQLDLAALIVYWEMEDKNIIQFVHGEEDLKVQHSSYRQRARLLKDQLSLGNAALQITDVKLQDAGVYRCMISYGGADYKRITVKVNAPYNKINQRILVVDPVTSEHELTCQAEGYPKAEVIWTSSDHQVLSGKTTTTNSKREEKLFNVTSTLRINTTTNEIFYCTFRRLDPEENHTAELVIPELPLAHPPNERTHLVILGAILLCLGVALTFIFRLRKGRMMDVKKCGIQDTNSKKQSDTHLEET
# Assay: competition FACS against Alexa 488-labeled murine BAP058 on PD-L1-expressing 300.19 cells
# Description: Incubations with the mAb mixtures having different concentration ratios of test mAb to labeled mAb was at 4° C. for 30 min. Bound labeled murine mAb was then quantified using a FACS machine. The experiment was performed twice.
row,Binder,Comp. binding (ratio conc. test mAb / conc. labelled murine BAP058 at the IC50)
1,B1,2.56
2,B2,1.96
3,B3,2.14
4,B4,1.8
5,B5,4.59
6,B6,2.47
7,B7,2.27
8,B8,2.16
9,B9,3.38
10,B10,1.87
11,B11,1.71
12,B12,1.39
13,B13,4.64

# Molecular target: T1, human PD-L1 expressed on 300.19 cells
# Assay: blocking of PE-labelled PD-1-Ig (0.7 µg/mL) binding to PD-L1-expressing 300.19 cells, FACS, 4 C, 4 h
# Description: Bound fluorescence was then measured using FACS and IC₅₀ values determined using Prism software.
row,Binder,IC50 (read off the curve) [µg/mL]
1,B4,~0.04
2,B14,~0.04
3,B10,~0.04

# Molecular target: T1, human PD-L1 expressed on 300.19 cells
# Assay: semi-quantitative ranking in the binding studies (4th column, p-1058; FACS data, p-1056); high number = poorer binder; the column's head says only 'Rank'
row,Binder,Rank
1,B1,17
2,B2,3
3,B3,17
4,B4,2
5,B5,4
6,B6,4
7,B7,4
8,B15,4
9,B8,4
10,B9,17
11,B10,1
12,B11,2
13,B12,2
14,B13,17
